In publication PMC3987903 one finds reduction of the interaction against WT data, which are given here for 1 substance.

In this test the target is GST-LT-Ag (HPD to AAA) mutant (JC virus (JCV)) (UniProt P03072). Kind of test: pull-down.

Sequence of human heat shock protein Hsp70 (P0DMV8 whole entry): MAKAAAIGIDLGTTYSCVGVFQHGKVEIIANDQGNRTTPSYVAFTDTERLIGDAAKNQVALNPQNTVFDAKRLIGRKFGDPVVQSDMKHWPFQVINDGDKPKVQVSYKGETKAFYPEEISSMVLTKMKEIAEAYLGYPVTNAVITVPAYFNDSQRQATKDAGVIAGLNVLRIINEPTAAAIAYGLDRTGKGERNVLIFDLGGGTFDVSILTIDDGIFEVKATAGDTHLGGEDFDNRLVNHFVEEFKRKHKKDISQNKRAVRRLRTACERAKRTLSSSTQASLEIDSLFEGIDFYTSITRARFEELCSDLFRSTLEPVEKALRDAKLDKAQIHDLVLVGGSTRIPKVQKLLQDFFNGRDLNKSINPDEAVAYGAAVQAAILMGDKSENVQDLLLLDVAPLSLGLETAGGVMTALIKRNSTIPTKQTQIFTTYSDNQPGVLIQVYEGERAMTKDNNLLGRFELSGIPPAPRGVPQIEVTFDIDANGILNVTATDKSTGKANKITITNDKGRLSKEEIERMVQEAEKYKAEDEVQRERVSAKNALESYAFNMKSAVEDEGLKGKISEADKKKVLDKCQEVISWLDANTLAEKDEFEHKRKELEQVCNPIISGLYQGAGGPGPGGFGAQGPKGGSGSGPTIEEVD

On to “human heat shock protein Hsp70 (from UniProt P0DMV8 1-641) (natural protein)”, for which the reduction of the interaction against WT was over 50%.
